# Results: article PMC6829864, “Determination of Ligand Profiles for Pseudomonas aeruginosa Solute Binding Proteins” (International Journal of Molecular Sciences, 2019)
# Entries after “also recorded” stand apart in the source; their conditions may differ. Where a SMILES comes first, the peptide text is derived from it.
# What was measured:
# [1] = biological target: T1, PA4497 (dppA2) (Pseudomonas aeruginosa, UniProt Q9HVS4); type: binding; settings: arrays PM3B, PM6, PM7, PM8
# T1 sequence (Q9HVS4 25-532): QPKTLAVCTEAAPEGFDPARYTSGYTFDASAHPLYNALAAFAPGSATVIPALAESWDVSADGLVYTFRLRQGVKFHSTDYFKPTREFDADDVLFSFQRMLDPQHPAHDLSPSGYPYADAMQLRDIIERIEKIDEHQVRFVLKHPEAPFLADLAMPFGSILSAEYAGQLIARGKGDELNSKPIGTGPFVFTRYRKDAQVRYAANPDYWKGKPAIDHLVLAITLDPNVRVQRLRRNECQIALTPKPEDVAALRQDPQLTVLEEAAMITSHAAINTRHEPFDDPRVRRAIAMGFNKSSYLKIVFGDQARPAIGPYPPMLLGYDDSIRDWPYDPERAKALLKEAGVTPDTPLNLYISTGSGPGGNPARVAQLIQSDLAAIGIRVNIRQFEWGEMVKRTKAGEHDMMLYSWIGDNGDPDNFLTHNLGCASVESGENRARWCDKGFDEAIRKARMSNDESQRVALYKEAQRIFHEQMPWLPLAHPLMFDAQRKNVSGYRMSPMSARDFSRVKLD
# [2] = biological target: PA1493 (cysP) (Pseudomonas aeruginosa, UniProt Q9I3L9); experiment: biochemical; type: binding, Pseudomonas aeruginosa PAO1; settings: PA1493 (cysP); 25 °C
# PA1493 (cysP), sequence (Q9I3L9 23-332): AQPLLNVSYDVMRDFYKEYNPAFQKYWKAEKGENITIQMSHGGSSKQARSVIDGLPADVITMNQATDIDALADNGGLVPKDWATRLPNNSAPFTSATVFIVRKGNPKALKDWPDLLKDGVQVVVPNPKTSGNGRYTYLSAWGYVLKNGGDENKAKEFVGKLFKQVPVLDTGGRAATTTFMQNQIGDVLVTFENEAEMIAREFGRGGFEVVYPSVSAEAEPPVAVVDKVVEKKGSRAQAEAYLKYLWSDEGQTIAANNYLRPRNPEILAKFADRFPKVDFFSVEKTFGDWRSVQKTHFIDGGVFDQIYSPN
# [3] = biological target: PA1863 (modA) (Pseudomonas aeruginosa, UniProt Q9I2N2); experiment: biochemical; type: binding, Pseudomonas aeruginosa PAO1
# PA1863 (modA), sequence (Q9I2N2 24-251): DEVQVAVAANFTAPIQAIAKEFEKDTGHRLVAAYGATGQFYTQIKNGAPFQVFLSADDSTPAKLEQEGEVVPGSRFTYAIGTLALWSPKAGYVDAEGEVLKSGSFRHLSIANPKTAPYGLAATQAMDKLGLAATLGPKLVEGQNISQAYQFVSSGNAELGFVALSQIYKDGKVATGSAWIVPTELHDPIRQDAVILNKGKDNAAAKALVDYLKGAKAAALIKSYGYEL
# [4] = test system: Pseudomonas aeruginosa PAO1; type: cell-based; settings: capillary assay; chemoeffector 1 mM, except molybdate 0.1 mM; 30 min
# [5] = biological target: PA4913 (Pseudomonas aeruginosa, UniProt Q9HUQ0); experiment: DSF thermal shift ligand screening, PA4913; type: binding, Pseudomonas aeruginosa PAO1; settings: Tm change vs ligand-free protein
# PA4913, sequence (Q9HUQ0 28-374): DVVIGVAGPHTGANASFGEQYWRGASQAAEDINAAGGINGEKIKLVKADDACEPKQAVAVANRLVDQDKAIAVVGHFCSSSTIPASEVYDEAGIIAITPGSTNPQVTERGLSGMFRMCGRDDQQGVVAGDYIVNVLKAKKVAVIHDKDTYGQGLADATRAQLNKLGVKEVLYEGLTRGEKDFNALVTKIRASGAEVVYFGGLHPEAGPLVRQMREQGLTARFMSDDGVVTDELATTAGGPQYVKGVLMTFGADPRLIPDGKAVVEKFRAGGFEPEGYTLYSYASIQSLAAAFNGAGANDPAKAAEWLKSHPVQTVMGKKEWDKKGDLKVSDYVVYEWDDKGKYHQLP
# [6] = biological target: PA4500 (DppA3) solute binding protein of Pseudomonas aeruginosa PAO1 (Pseudomonas aeruginosa PAO1) (UniProt Q9HVS1); experiment: differential scanning fluorimetry thermal shift assay
# PA4500 (DppA3) solute binding protein of Pseudomonas aeruginosa PAO1 (Pseudomonas aeruginosa PAO1), sequence (Q9HVS1 25-533): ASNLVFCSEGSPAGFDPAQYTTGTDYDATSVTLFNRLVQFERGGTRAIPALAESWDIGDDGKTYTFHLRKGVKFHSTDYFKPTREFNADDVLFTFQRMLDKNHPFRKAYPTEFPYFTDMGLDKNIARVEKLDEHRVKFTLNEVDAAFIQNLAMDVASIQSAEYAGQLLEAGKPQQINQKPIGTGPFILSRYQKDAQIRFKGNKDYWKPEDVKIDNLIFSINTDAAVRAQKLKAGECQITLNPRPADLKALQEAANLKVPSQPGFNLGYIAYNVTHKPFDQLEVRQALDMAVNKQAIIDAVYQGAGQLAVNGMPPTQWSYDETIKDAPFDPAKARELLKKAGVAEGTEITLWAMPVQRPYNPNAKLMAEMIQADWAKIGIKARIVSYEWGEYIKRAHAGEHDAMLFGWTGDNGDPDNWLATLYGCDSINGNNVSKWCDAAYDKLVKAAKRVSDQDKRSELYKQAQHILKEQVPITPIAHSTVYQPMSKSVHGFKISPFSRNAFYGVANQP
# [7] = biological target: PA4500 (DppA3) (Pseudomonas aeruginosa PAO1) (UniProt Q9HVS1); experiment: ITC
# PA4500 (DppA3) (Pseudomonas aeruginosa PAO1), sequence (Q9HVS1 25-533): as above
# [8] = biological target: PA4497 (DppA2) solute binding protein of Pseudomonas aeruginosa PAO1 (Pseudomonas aeruginosa PAO1) (UniProt Q9HVS4); experiment: differential scanning fluorimetry thermal shift assay
compound,measurement,setting,value
CC(C)CC(N)C(=O)NC(CC(C)C)C(=O)NC(CC(C)C)C(=O)O (stereo not drawn) [Leu-Leu-Leu] (H-Leu-Leu-Leu-OH; configuration not given here),Tm DSF (Tm increase),[1],5.0 °C
[O]=[Mo](=[O])([O-])[O-] [Molybdate],No Binding Observed by ITC,[2],did not show any binding
same,Kd,"[3]; Affinity by ITC, PA1863 (modA), value as printed in text",~10 nM
same,Kd,"[3]; KD by ITC, PA1863 (modA), 25 °C",10 nM
N[C@@H](Cc1ccccc1)C(=O)NCC(=O)NCC(=O)O [Phe-Gly-Gly] (H-Phe-Gly-Gly-OH),Tm DSF (Tm increase),[1],8.3 °C
CC(C)[C@H](N)C(=O)N[C@@H](Cc1ccc(O)cc1)C(=O)N[C@H](C(=O)O)C(C)C [Val-Tyr-Val] (H-Val-Tyr-Val-OH),Chemotaxis,[4],Yes (Positive chemotaxis was considered when the number of bacterial cells per capillary was superior to 5000.)
same,Tm DSF (Tm increase),[1],5.0 °C
[O]=[V]([O-])([O-])[O-] [Vanadate],No Binding Observed by ITC,[3],did not reveal any binding
[O]=[Mn](=[O])([O-])[O-] [manganate],No Binding Observed by ITC,[3],did not reveal any binding
O=[Se](O)O [selenite],No Binding Observed by ITC,[2],did not show any binding
CCC(N)C(=O)O (stereo not drawn) [α-aminobutyrate],Tm DSF (Tm increase),[5],8.1 °C
Ala-Ala (peptide),Tm increase (DSF),[6],11.3 °C
same,Ka,[7],4.71e+06 M⁻¹
Ala-Ala-Ala (peptide),Tm increase (DSF),[8],9.1 °C
Ala-His (peptide),Tm increase (DSF),[6],3 °C
same,Ka,[7],134000 M⁻¹
Ala-Phe (peptide),Tm increase (DSF),[6],2 °C
same,Ka,[7],162000 M⁻¹
Ala-Thr (peptide),Tm increase (DSF),[6],7 °C
same,Ka,[7],1.09e+06 M⁻¹
Gly-Gly-Ala (peptide),Tm increase (DSF),[8],7.6 °C
Gly-Gly-Gly (peptide),Tm increase (DSF),[8],4.4 °C
Gly-Gly-Ile (peptide),Tm increase (DSF),[8],5.1 °C
Gly-Gly-Phe (peptide),Tm increase (DSF),[8],3.7 °C
Gly-Phe-Phe (peptide),Tm increase (DSF),[8],6.6 °C
Gly-Val (peptide),Tm increase (DSF),[6],2 °C
same,Ka,[7],157000 M⁻¹
Leu-Gly-Gly (peptide),Tm increase (DSF),[8],3.2 °C
Leu-Leu-Leu (peptide),Tm increase (DSF),[8],5 °C
Phe-Gly-Gly (peptide),Tm increase (DSF),[8],8.3 °C
Tungstate,Chemotaxis,[4],No (Positive chemotaxis was considered when the number of bacterial cells per capillary was superior to 5000.)
same,KD by ITC,"[3]; PA1863 (modA), 25 °C",ultra-tightly; also recorded: Ultratight
Val-Tyr-Val (peptide),Tm increase (DSF),[8],5 °C
phosphate,No Binding Observed by ITC,[2],did not show any binding
